Test results from patent publication US20180224449A1.

Biological target: biotinylated OprF1 synthetic peptide (P. aeruginosa)
Assay: pooled monoclonal phages pulled down on biotinylated OprF1 in Bushnell-Haas with 1% Jet-A; unamplified eluate, share of 30 sequenced clones

Q: For “M13 phage displaying the PPKINIM peptide”, which relative percent abundance is on record?
A: The relative percent abundance was 3%.

Biological target: biotinylated Opr86 extracellular loop synthetic peptide
Assay: solution biopanning on biotinylated Opr86 loop peptide in Bushnell-Haas pH 8.5 with 1% Jet-A, three rounds; share of clones

Q: How did the % Abundance turn out when “M13 phage displaying OPP1 (PRIRKSH) (peptide)” was run?
A: Its % Abundance is 3%.

Q: For “M13 phage displaying OPP5 (IITMKRR) (peptide)”, which % Abundance is on record?
A: Its % Abundance is 3%.

Q: “M13 phage displaying OPP3 (LPSTIHR) (peptide)” was tested. Which % Abundance did it give?
A: Its % Abundance is 2%.

Q: “M13 phage displaying OPP4 (LRPLMNR) (peptide)” was tested. Which % Abundance did it give?
A: Its % Abundance is 3%.

Q: How did the % Abundance turn out when “M13 phage displaying OPP2 (MHNLNLL) (peptide)” was run?
A: Its % Abundance is 2%.

Q: With “M13 phage displaying OPP6 (RKKSRIR) (peptide)” as the substance, how does the % Abundance read?
A: The % Abundance was 2%.
